Reference: patent US6420345 (CELL GENESYS, dated 2002)

Legend:
[1] = target: CDK2/cyclin E complex (UniProt P24941 1-298; P24864 16-410); test: cell-based or functional assay
[2] = target: CDK2/cyclin A complex (UniProt P24941 1-298; P20248 1-432); test: cell-based or functional assay
[3] = target: CDC2/cyclin B complex (UniProt P06493 1-297; P14635 1-433); test: cell-based or functional assay
[4] = target: T1, CDK4/cyclin D1 complex (UniProt P11802 1-303; P24385 1-295); test: cell-based or functional assay
T1 sequence (P11802 whole entry, chain 1 of 2): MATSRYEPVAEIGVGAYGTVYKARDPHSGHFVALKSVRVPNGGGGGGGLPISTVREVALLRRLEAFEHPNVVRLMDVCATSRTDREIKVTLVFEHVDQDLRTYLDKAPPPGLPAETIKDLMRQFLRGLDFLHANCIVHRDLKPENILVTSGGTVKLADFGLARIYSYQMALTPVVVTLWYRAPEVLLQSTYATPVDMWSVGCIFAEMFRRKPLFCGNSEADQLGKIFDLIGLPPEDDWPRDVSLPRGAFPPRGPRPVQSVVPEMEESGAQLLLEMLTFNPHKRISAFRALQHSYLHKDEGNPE
T1 sequence (P24385 whole entry, chain 2 of 2): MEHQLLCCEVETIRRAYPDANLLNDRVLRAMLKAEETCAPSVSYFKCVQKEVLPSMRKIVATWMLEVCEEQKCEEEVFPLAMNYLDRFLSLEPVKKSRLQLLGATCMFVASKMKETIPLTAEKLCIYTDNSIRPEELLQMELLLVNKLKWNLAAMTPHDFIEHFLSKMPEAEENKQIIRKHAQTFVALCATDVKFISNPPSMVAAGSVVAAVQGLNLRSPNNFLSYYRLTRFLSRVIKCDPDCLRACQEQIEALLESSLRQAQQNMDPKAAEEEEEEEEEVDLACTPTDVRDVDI

[5] = target: T1, CDK4/cyclin D1 complex; test: in vitro kinase inhibition assay (32P incorporation into GST-Rb)
Protocol: Partial purification of CDK4/cyclin D1 was achieved by a 20–40% ammonium sulfate preparation of the cell lysate and was used in the assays. […] These assays were carried out in 96 well plates (Nunc, Naperville, Ill.) and monitored by γ-^32P-ATP incorporation.
The concentrations of GST-Rb and histone H1 were 4.4 mM and 19 mM, respectively, and the concentration of ATP was 50–60 mM. The reaction mixtures contained 50 mM Tris-Cl pH 7.5, 10 mM MgCl_2, and 1 mM DTT in a total volume of 50 or 100 µl. After incubation at 30° C. for 10–20 minutes, the reaction was terminated by the addition of a stop solution containing EDTA. The phosphorylated substrates were captured either by GST-Sepharose or TCA precipitation and then monitored for radioactivity (Microplate Scintillation Counter, Packard, Meriden, Conn.).

Sequence of CDC2/cyclin B complex (P06493 whole entry, chain 1 of 2): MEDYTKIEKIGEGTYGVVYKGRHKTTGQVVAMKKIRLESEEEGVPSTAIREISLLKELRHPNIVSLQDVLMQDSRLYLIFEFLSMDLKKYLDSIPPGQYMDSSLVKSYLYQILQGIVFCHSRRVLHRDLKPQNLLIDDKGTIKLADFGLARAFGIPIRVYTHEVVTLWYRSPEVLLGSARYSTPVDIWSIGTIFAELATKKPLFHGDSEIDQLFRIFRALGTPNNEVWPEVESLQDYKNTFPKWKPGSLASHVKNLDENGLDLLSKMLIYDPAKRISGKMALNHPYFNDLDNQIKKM
Sequence of CDC2/cyclin B complex (P14635 whole entry, chain 2 of 2): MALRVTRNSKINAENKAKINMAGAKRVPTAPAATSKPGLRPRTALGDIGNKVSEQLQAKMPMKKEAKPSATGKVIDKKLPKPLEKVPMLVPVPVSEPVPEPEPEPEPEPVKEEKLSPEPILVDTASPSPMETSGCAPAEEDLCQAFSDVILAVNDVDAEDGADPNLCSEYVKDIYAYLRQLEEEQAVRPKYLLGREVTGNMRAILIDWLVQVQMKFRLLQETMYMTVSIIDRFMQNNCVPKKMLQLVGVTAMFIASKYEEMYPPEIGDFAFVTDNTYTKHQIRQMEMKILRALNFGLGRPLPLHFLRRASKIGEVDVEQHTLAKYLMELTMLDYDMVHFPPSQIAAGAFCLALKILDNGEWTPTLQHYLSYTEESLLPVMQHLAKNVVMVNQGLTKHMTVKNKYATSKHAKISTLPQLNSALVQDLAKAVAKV

IC50, in vitro kinase assay [1]: > 500 nM | IC50, in vitro kinase assay [2]: > 500 nM | IC50, in vitro kinase assay [3]: > 500 nM | IC50, in vitro kinase assay [4]: 250 nM | Ki [5]: 75 nM
B1: human p16 (other)
chain: MEPAAGSSMEPSADWLATAAARGRVEEVRALLEAGALPNAPNSYGRRPIQVMMMGSARVAELLLLHGAEPNCADPATLTRPVHDAAREGFLDTLVVLHRAGARLDVRDAWGRLPVDLAEELGHRDVARYLRAAAGGTRGSNHARIDAAEGPSDIPD
notes: also called p16INK4
